The text below walks through data of paper PMC4056191 (Nature, 2012).

The chains are these.
B1: GST–DAXX tower (183–251) E225A (domain or fragment)
chain: GSRRQIQRLEQLLALYVAEIRRLQEKELDLSELDDPDSAYLQAARLKRKLIRLFGRLCELKDCSSLTGR
B2: GST–DAXX tower (183–251) K229A (domain or fragment)
chain: GSRRQIQRLEQLLALYVAEIRRLQEKELDLSELDDPDSAYLQEARLARKLIRLFGRLCELKDCSSLTGR
B3: GST–DAXX tower (183–251) Q206A (domain or fragment)
chain: GSRRQIQRLEQLLALYVAEIRRLAEKELDLSELDDPDSAYLQEARLKRKLIRLFGRLCELKDCSSLTGR

This experiment has as its target wild-type histone H3.3–H4 tetramers (human, UniProt P84243 1-136; P62805 1-103). Description: pull-down.
B1: the binding result was “binds”.
With B2, the binding result is on record as “binds”.
With B3, the binding result is “binds”.
